For data set [1], the target named is human Factor IX EGF domain (wild type) (UniProt P00740).
In data set [2] the target is human Factor IX EGF domain mutant EGF.AA (UniProt P00740).
Data set [3] has as its target human Factor IX EGF domain mutant EGF.AG (UniProt P00740).
In data set [4] the target is human Factor IX EGF domain mutant EGF.GA (UniProt P00740).

This note sets out measurements from patent US20060105444.

Sequence of human Factor IX EGF domain mutant EGF.AA (P00740 other isoform, or with tags, fused parts or gaps mutant): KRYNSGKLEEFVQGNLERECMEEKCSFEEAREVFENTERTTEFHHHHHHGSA
Sequence of human Factor IX EGF domain mutant EGF.AG (P00740 other isoform, or with tags, fused parts or gaps mutant): as above
Sequence of human Factor IX EGF domain (wild type) (P00740 other isoform, or with tags, fused parts or gaps): as the sequence (P00740 other isoform, or with tags, fused parts or gaps mutant) above
Sequence of human Factor IX EGF domain mutant EGF.GA (P00740 other isoform, or with tags, fused parts or gaps mutant): as above

With “O-fucosyltransferase purified from CHO cells”, the Fucose (cpm) is 12100 cpm in data set [1], 1820 cpm in data set [2], 4580 cpm in data set [3] and 6480 cpm in data set [4]. In addition, the “RP-HPLC with electrospray mass spectrometry of the fucosylation product” value in data set [2] was “only one of the four differently folded species served as an acceptor substrate for the O-fucosyltransferase”.
